The text below walks through data of PMC10037535.

This experiment has as its target F-4p-18mer-tail (synthetic fluorescein-labeled tetraphosphorylated PTEN C-tail peptide). The experiment in a line: fluorescence polarisation. In general terms: In fluorescence polarisation assays a small probe gives low polarisation when free and higher when bound to something large.

In turn, “VSP Asp mutants of the active site Lys residues (Lys364 and Lys367) (domain or fragment)” registered a fold weakening of the phospho-tail interaction against wild-type VSP of 3.4 fold.
